This assay concerns the target AliC (residues 24-655) (Streptococcus pneumoniae). Description: crystal structure.

The term stoichiometry N denotes a count of units in the complex or per binding partner. On to “AliC (residues 24-655) (natural protein)”, for which the stoichiometry N was found to be 2.
